# Data: patent US20250295737A1 (AstraZeneca / MedImmune, published 2025)
# Numbering of substitutions follows the chain as printed.
# T1: mouse RXFP1 (mouse, UniProt Q6R6I7 1-758)
# T1 sequence (looked up): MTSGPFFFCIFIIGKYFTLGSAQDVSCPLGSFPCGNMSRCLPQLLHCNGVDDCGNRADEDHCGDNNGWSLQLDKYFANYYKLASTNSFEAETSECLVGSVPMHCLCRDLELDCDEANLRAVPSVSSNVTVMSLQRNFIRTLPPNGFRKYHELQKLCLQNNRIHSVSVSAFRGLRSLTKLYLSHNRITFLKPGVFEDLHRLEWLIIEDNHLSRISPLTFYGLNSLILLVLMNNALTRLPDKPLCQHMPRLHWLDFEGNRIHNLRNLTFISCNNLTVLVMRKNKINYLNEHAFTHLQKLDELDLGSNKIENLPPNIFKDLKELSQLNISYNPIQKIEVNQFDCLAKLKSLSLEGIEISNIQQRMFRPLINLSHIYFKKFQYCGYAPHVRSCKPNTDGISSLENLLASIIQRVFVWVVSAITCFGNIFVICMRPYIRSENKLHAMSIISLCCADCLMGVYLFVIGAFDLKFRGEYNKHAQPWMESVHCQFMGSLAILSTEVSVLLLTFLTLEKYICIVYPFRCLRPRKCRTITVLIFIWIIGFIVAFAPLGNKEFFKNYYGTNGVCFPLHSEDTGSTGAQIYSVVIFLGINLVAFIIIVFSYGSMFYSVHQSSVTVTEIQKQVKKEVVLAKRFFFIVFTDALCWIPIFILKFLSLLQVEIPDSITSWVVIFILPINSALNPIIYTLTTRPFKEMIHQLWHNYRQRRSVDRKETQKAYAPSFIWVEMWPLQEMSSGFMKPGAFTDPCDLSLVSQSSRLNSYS
# T2: human RXFP1 (human, UniProt Q9HBX9 1-757)
# T2 sequence (looked up): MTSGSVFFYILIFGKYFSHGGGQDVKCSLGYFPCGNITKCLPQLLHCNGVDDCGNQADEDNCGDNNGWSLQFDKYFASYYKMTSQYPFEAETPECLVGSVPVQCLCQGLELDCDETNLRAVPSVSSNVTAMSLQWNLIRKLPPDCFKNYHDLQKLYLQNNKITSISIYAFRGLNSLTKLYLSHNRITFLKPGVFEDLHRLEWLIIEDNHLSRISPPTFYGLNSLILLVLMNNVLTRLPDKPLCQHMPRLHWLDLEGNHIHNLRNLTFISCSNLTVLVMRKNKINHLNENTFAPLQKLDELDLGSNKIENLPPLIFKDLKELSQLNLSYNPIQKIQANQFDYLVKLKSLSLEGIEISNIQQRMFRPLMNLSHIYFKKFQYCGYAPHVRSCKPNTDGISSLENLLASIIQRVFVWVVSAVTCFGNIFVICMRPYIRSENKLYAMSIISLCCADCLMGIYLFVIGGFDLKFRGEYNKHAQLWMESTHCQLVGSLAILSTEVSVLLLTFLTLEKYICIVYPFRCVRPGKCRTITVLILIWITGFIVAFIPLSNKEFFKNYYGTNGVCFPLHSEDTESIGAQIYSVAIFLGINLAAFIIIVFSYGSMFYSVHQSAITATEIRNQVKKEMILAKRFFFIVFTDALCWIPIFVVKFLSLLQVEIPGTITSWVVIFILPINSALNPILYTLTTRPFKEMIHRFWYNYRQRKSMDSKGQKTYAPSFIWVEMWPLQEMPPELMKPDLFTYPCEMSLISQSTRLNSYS
# B1: RELAX0110 (Fc fusion)
# chain 1: DKTHTCPPCPAPEFEGGPSVFLFPPKPKDTLMISRTPEVTCVVVDVSHEDPEVKFNWYVDGVEVHNAKTKPREEQYNSTYRVVSVLTVLHQDWLNGKEYKCKVSNKALPASIEKTISKAKGQPREPQVYTLPPCREEMTKNQVSLWCLVKGFYPSDIAVEWESNGQPENNYKTTPPVLDSDGSFFLYSKLTVDKSRWQQGNVFSCSVMHEALHNHYTQKSLSLSPGGGGGSGGGGGSQLYSALANKCCHVGCTKRSLARFC
# chain 2: DKTHTCPPCPAPEFEGGPSVFLFPPKPKDTLMISRTPEVTCVVVDVSHEDPEVKFNWYVDGVEVHNAKTKPREEQYNSTYRVVSVLTVLHQDWLNGKEYKCKVSNKALPASIEKTISKAKGQPREPQVYTLPPCREEMTKNQVSLWCLVKGFYPSDIAVEWESNGQPENNYKTTPPVLDSDGSFFLYSKLTVDKSRWQQGNVFSCSVMHEALHNHYTQKSLSLSPGAAPAPAPAPAPAPAGSSWMEEVIKLCGRELVRAQIAICGMSTWS
# B2: RELAX0111 (Fc fusion)
# chain 1: DKTHTCPPCPAPEFEGGPSVFLFPPKPKDTLMISRTPEVTCVVVDVSHEDPEVKFNWYVDGVEVHNAKTKPREEQYNSTYRVVSVLTVLHQDWLNGKEYKCKVSNKALPASIEKTISKAKGQPREPQVYTLPPCREEMTKNQVSLWCLVKGFYPSDIAVEWESNGQPENNYKTTPPVLDSDGSFFLYSKLTVDKSRWQQGNVFSCSVMHEALHNHYTQKSLSLSPGGGGGGSQLYSALANKCCHVGCTKRSLARFC
# chain 2: B1 chain 2
# B3: RELAX0039 (Fc fusion)
# chain 1: DKTHTACPPCPAPEFEGGPSVFLFPPKPKDTLMISRTPEVTCVVVDVSHEDPEVKFNWYVDGVEVHNAKTKPREEQYNSTYRVVSVLTVLHQDWLNGKEYKCKVSNKALPASIEKTISKAKGQPREPQVYTLPPCREEMTKNQVSLWCLVKGFYPSDIAVEWESNGQPENNYKTTPPVLDSDGSFFLYSKLTVDKSRWQQGNVFSCSVMHEALHNHYTQKSLSLSPGGGGGSGGGGSGGGGSGGGGGSQLYSALANMCCHVGCTKRSLARFC
# chain 2: DKTHTCPPCPAPEFEGGPSVFLFPPKPKDTLMISRTPEVTCVVVDVSHEDPEVKFNWYVDGVEVHNAKTKPREEQYNSTYRVVSVLTVLHQDWLNGKEYKCKVSNKALPASIEKTISKAKGQPREPQVCTLPPSREEMTKNQVSLSCAVKGFYPSDIAVEWESNGQPENNYKTTPPVLDSDGSFFLVSKLTVDKSRWQQGNVFSCSVMHEALHNHYTQKSLSLSPGGGGGSGGGGSGGGGSGGGGGSSWMEEVIKLCGRELVRAQIAICGMSTWS
# B4: RELAX0070 (Fc fusion)
# chain 1: DKTHTCPPCPAPEFEGGPSVFLFPPKPKDTLMISRTPEVTCVVVDVSHEDPEVKFNWYVDGVEVHNAKTKPREEQYNSTYRVVSVLTVLHQDWLNGKEYKCKVSNKALPASIEKTISKAKGQPREPQVYTLPPCREEMTKNQVSLWCLVKGFYPSDIAVEWESNGQPENNYKTTPPVLDSDGSFFLYSKLTVDKSRWQQGNVFSCSVMHEALHNHYTQKSLSLSPGGGGGSGGGGSGGGGSGGGGGSQLYSALANKCCHVGCTKRSLAIFC
# chain 2: B3 chain 2
# B5: RELAX0063 (Fc fusion)
# chain 1: B4 chain 1 with I269R, F270A
# chain 2: B3 chain 2
# B6: RELAX0052 (Fc fusion)
# chain 1: B3 chain 1 with M257K, R266E
# chain 2: B3 chain 2
# B7: RELAX0043 (Fc fusion)
# chain 1: B3 chain 1 with M257E
# chain 2: B3 chain 2
# B8: RELAX0073 (Fc fusion)
# chain 1: B4 chain 1 with I269Y
# chain 2: B3 chain 2
# B9: RELAX0053 (Fc fusion)
# chain 1: B3 chain 1 with M257K, R266H
# chain 2: B3 chain 2
# B10: RELAX0069 (Fc fusion)
# chain 1: B4 chain 1 with I269M
# chain 2: B3 chain 2
# B11: RELAX0040 (Fc fusion)
# chain 1: B3 chain 1 with M257L
# chain 2: B3 chain 2
# B12: RELAX0075 (Fc fusion)
# chain 1: B4 chain 1 with I269R, F270I
# chain 2: B3 chain 2
# B13: RELAX0041 (Fc fusion)
# chain 1: B3 chain 1 with M257H
# chain 2: B3 chain 2
# B14: RELAX0071 (Fc fusion)
# chain 1: B4 chain 1 with I269Q
# chain 2: B3 chain 2
# B15: RELAX0072 (Fc fusion)
# chain 1: B4 chain 1 with I269A
# chain 2: B3 chain 2
# B16: RELAX0074 (Fc fusion)
# chain 1: B4 chain 1 with I269S
# chain 2: B3 chain 2
# Target: T1, mouse RXFP1
# Assay: cell-based or functional assay
row,"EC50 mRXFP1 (M), cAMP HTRF assay",Binder
1,1.11e-09 M,B1
2,1.24e-09 M,B2

# Target: T3, human RXFP2 (human, UniProt Q8WXD0 1-754)
# T3 sequence (Q8WXD0 whole entry): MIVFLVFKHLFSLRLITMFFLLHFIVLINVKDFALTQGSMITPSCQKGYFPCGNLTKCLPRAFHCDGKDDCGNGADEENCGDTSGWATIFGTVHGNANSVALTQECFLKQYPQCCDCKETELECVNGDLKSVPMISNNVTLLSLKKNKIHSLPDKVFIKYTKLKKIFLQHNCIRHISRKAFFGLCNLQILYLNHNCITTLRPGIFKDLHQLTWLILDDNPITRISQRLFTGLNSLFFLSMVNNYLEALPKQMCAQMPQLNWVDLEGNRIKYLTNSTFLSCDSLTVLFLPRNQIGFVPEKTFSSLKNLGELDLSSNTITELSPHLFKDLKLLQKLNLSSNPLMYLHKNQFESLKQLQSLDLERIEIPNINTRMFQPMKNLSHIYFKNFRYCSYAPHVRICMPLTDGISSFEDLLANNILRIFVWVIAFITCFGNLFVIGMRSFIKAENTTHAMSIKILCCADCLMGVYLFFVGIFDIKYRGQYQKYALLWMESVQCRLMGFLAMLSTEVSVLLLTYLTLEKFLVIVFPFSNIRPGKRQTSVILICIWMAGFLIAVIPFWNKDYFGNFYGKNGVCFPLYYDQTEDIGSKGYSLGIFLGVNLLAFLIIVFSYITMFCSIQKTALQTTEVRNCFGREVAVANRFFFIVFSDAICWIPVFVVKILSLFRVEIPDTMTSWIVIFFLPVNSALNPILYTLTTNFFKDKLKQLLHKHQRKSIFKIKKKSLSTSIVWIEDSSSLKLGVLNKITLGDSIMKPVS
# Assay: cell-based or functional assay
row,"EC50 hRXFP2 (M), cAMP HTRF assay",Binder
1,> 6.07e-08 M,B1
2,> 6.06e-08 M,B2

# Target: T2, human RXFP1
# Assay: cell-based or functional assay
row,"EC50 hRXFP1 (M), cAMP HTRF assay",Binder
1,1.88e-09 M,B1
2,1.93e-09 M,B2

# Target: T1, mouse RXFP1
# Assay: cell-based or functional assay
# Remark: another data set of the same source
row,"EC50 mRXFP1 (M), cAMP HTRF assay",Binder
1,4.25e-11 M,B3
2,5.02e-11 M,B4
3,4.46e-11 M,B5
4,5.69e-11 M,B6
5,5.58e-11 M,B7
6,4.15e-11 M,B8
7,4.36e-11 M,B9
8,3.69e-11 M,B10
9,2.92e-11 M,B11
10,6.14e-11 M,B12
11,3.17e-11 M,B13
12,3.93e-11 M,B14
13,4.03e-11 M,B15
14,4.53e-11 M,B16

# Target: T3, human RXFP2
# Assay: cell-based or functional assay
# Remark: another data set of the same source
row,"EC50 hRXFP2 (M), cAMP HTRF assay",Binder
1,1.08e-07 M,B3
2,1.07e-07 M,B4
3,> 1.38e-07 M,B5
4,1.05e-07 M,B6
5,> 1.58e-07 M,B7
6,8.63e-08 M,B8
7,> 1.79e-07 M,B9
8,> 1.62e-07 M,B10
9,> 1.27e-07 M,B11
10,> 1.43e-07 M,B12
11,1.18e-07 M,B13
12,1.15e-07 M,B14
13,> 2.3e-07 M,B15
14,9.21e-08 M,B16

# Target: T2, human RXFP1
# Assay: cell-based or functional assay
# Remark: another data set of the same source
row,"EC50 hRXFP1 (M), cAMP HTRF assay",Binder
1,6.54e-11 M,B3
2,6.67e-11 M,B4
3,1.96e-10 M,B5
4,9.67e-11 M,B6
5,7.98e-11 M,B7
6,5.7e-11 M,B8
7,7.15e-11 M,B9
8,5.76e-11 M,B10
9,5.92e-11 M,B11
10,9.47e-11 M,B12
11,6.22e-11 M,B13
12,6.87e-11 M,B14
13,8.53e-11 M,B15
14,5.45e-11 M,B16
